Source: WO2010064089A1

Key:
[1] = molecular target: C-Met-Rluc and C-Met-K1100A-YFP co-expressed in a CHO stable cell line (c-Met dimerization BRET model) (R. reniformis), P08581; assay: cell-based or functional assay
[2] = molecular target: C-Met-Rluc expressed with a mutated form of Gab1 fused to YFP in a CHO stable cell line (c-Met activation BRET model) (R. reniformis), P08581; assay: cell-based or functional assay

Row | Binder | inhibition of the HGF induced BRET signal, c-Met dimerization model [1] [%] | inhibition of the HGF effect, c-Met activation BRET model [2] [%] | BRET signal with Mab alone, c-Met dimerization model (% of HGF-induced signal) [1] | inhibition of the HGF induced BRET signal, c-Met activation model [2] [%] | inhibition of the HGF induced c-Met dimerization BRET signal [1] [%] | BRET signal with Mab alone, c-Met activation model [2] [%] | inhibition of the HGF induced activation BRET signal [2] [%] | BRET signal with Mab alone, c-Met activation model (% of the HGF induced signal) [2]
1 | [224G11][IgG2 chim] (antibody) heavy: EVQLQQSGPELVKPGASVKISCKTSGYIFTAYTMHWVRQSLGESLDWIGGIKPNNGLANYNQKFKGKATLTVDKSSSTAYMDLRSLTSEDSAVYYCARSEITTEFDYWGQGTALTVSSASTKGPSVFPLAPCSRSTSESTAALGCLVKDYFPEPVTVSWNSGALTSGVHTFPAVLQSSGLYSLSSVVTVPSSNFGTQTYTCNVDHKPSNTKVDKTVERKCCVECPPCPAPPVAGPSVFLFPPKPKDTLMISRTPEVTCVVVDVSHEDPEVQFNWYVDGVEVHNAKTKPREEQFNSTFRVVSVLTVVHQDWLNGKEYKCKVSNKGLPAPIEKTISKTKGQPREPQVYTLPPSREEMTKNQVSLTCLVKGFYPSDIAVEWESNGQPENNYKTTPPMLDSDGSFFLYSKLTVDKSRWQQGNVFSCSVMHEALHNHYTQKSLSLSPG light: DIVLTQSPASLAVSLGQRATISCRASESVDSYANSFMHWYQQKPGQPPKLLIYRASNLESGIPARFSGSGSRTDFTLTINPVEADDVATYYCQQSKEDPLTFGSGTKLEMKRTVAAPSVFIFPPSDEQLKSGTASVVCLLNNFYPREAKVQWKVDNALQSGNSQESVTEQDSKDSTYSLSSTLTLSKADYEKHKVYACEVTHQGLSSPVTKSFNRGEC | 62.4 | 66.3 |  |  |  |  |  | 
2 | [224G11][MH chim] (antibody, human IgG1, V domains shown) VH: EVQLQQSGPELVKPGASVKISCKTSGYIFTAYTMHWVRQSLGESLDWIGGIKPNNGLANYNQKFKGKATLTVDKSSSTAYMDLRSLTSEDSAVYYCARSEITTEFDYWGQGTALTVSS VL: DIVLTQSPASLAVSLGQRATISCRASESVDSYANSFMHWYQQKPGQPPKLLIYRASNLESGIPARFSGSGSRTDFTLTINPVEADDVATYYCQQSKEDPLTFGSGTKLEMKR |  |  |  |  | 61.8 | 5.1 | 59.7 | 
3 | [224G11][MMCH chim] (antibody, human IgG1, V domains shown) VH: EVQLQQSGPELVKPGASVKISCKTSGYIFTAYTMHWVRQSLGESLDWIGGIKPNNGLANYNQKFKGKATLTVDKSSSTAYMDLRSLTSEDSAVYYCARSEITTEFDYWGQGTALTVSS VL: DIVLTQSPASLAVSLGQRATISCRASESVDSYANSFMHWYQQKPGQPPKLLIYRASNLESGIPARFSGSGSRTDFTLTINPVEADDVATYYCQQSKEDPLTFGSGTKLEMKR |  |  |  |  | 52.5 | -2 | 53.2 | 

The next lines start with the values.

Row | inhibition of the HGF induced BRET signal, c-Met dimerization model [1] [%] | inhibition of the HGF effect, c-Met activation BRET model [2] [%] | BRET signal with Mab alone, c-Met dimerization model (% of HGF-induced signal) [1] | inhibition of the HGF induced BRET signal, c-Met activation model [2] [%] | inhibition of the HGF induced c-Met dimerization BRET signal [1] [%] | BRET signal with Mab alone, c-Met activation model [2] [%] | inhibition of the HGF induced activation BRET signal [2] [%] | BRET signal with Mab alone, c-Met activation model (% of the HGF induced signal) [2] | Binder
4 | 59.4 |  | 21.3 | 56.4 |  |  |  |  | murine 224G11 Mab (antibody, mouse IgG1, V domains shown) VH: EVQLQQSGPELVKPGASVKISCKTSGYIFTAYTMHWVRQSLGESLDWIGGIKPNNGLANYNQKFKGKATLTVDKSSSTAYMDLRSLTSEDSAVYYCARSEITTEFDYWGQGTALTVSS VL: DIVLTQSPASLAVSLGQRATISCRASESVDSYANSFMHWYQQKPGQPPKLLIYRASNLESGIPARFSGSGSRTDFTLTINPVEADDVATYYCQQSKEDPLTFGSGTKLEMKR
5 |  |  |  |  | 64.4 | 7.6 | 64.4 |  | [224G11][MUP9H chim] (antibody, human IgG1, V domains shown) VH: EVQLQQSGPELVKPGASVKISCKTSGYIFTAYTMHWVRQSLGESLDWIGGIKPNNGLANYNQKFKGKATLTVDKSSSTAYMDLRSLTSEDSAVYYCARSEITTEFDYWGQGTALTVSS VL: DIVLTQSPASLAVSLGQRATISCRASESVDSYANSFMHWYQQKPGQPPKLLIYRASNLESGIPARFSGSGSRTDFTLTINPVEADDVATYYCQQSKEDPLTFGSGTKLEMKR
6 | 28.9 |  | 46.6 | 34.5 |  |  |  | 32.9 | [224G11]chim (antibody, human IgG1, V domains shown) VH: EVQLQQSGPELVKPGASVKISCKTSGYIFTAYTMHWVRQSLGESLDWIGGIKPNNGLANYNQKFKGKATLTVDKSSSTAYMDLRSLTSEDSAVYYCARSEITTEFDYWGQGTALTVSS VL: DIVLTQSPASLAVSLGQRATISCRASESVDSYANSFMHWYQQKPGQPPKLLIYRASNLESGIPARFSGSGSRTDFTLTINPVEADDVATYYCQQSKEDPLTFGSGTKLEMKR
